Publication PMC10946326

What was measured:
MORF WH1;p300 TAZ2 = MORF WH1;p300 TAZ2 (Homo sapiens;Homo sapiens?, UniProt Q8WYB5;Q09472 5-84;1722-1812, |); assay: NMR
MORF WH1 = target: T1, MORF WH1 (Homo sapiens, UniProt Q8WYB5 5-84); assay: EMSA
T1 sequence: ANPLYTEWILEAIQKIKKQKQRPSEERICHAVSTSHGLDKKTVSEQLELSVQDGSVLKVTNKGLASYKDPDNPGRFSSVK

MOZ WH1 = target: T2, MOZ WH1 (Homo sapiens, UniProt Q92794 2-86); assay: NMR
T2 sequence: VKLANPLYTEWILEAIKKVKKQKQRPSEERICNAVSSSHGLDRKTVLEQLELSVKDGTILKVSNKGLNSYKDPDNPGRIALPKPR

Measured: binding result

Chain of MORF WH1;p300 TAZ2 (Q09472 1722-1812, one chain of several): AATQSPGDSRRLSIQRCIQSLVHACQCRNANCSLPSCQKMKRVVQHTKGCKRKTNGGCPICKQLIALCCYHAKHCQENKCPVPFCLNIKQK

B1: CpG-DNA16 (dsDNA)
DNA 1: TAACCTGCGCACCATA
DNA 2: TATGGTGCGCAGGTTA
binds: all assays above
